Laboratory results taken from patent publication US20090191211A1 (ONCOTHERAPY SCIENCE, published 2009).

Biological target: T1, EphA4 (Eph receptor A4) (human, UniProt P54764 20-986)
T1 construct: Endogenous EphA4 on the human pancreatic cancer cell line MIAPaca-2 (over-expressing); also called EpbA4
Experiment: flow cytometry on EphA4 over-expressing MIAPaca-2 cells
Protocol: Cancer cells (5×10⁶) were incubated at 4° C. for 30 minutes with the purified polyclonal antibody (pAb), monoclonal antibodies (mAb), rabbit IgG (the control for pAb) or mouse IgG (the control for mAb). Cells were washed with phosphate buffer solution (PBS) and then incubated at 4° C. for 30 minutes in FITC-labeled Alexa Fluor 488. The cells were again washed in PBS, and analyzed on a flow cytometer (FACSCalibur®, Becton Dickinson) and then analyzed by BD CellQuest™ Pro software (Becton Dickinson). Mean fluorescence intensity (MFI) was defined as a ratio of the flow cytometric intensity (intensity by each protein specific antibody/intensity by rabbit IgG).
Using EphA4 over-expressing cells, the binding ratios of anti-EphA4 antibodies on the cell surface were investigated.

T1 sequence (P54764 20-986): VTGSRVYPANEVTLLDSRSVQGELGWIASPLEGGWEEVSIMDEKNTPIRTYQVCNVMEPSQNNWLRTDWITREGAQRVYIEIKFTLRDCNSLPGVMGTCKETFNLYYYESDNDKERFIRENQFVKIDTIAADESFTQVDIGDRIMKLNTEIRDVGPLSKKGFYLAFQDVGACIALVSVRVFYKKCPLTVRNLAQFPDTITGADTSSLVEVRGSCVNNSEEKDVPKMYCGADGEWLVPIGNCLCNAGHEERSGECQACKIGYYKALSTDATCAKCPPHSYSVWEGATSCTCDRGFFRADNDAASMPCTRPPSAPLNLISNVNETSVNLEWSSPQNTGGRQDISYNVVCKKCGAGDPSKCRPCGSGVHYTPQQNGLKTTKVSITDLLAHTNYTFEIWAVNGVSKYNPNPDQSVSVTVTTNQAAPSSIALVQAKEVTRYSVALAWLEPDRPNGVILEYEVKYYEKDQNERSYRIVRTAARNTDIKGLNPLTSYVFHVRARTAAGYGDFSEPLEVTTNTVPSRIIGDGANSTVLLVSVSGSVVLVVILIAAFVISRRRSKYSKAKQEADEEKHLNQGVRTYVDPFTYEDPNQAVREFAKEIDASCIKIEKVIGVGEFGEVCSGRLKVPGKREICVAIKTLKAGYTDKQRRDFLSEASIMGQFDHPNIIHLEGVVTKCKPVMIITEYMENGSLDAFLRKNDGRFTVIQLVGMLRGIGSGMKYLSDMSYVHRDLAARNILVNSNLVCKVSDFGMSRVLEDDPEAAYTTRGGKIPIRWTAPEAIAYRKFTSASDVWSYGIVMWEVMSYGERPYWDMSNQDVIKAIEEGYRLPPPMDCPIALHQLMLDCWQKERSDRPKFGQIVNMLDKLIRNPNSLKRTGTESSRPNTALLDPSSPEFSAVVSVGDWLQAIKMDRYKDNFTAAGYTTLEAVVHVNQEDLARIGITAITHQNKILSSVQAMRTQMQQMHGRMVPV

B1: anti-EphA4 human antibody 65 (antibody, V domains shown)
VH: QVQLVQSGAEVKKPGASVKVSCKVSGYTLTELSMHWVRQAPGKGLEWMGGFDPEDGETIYAQKFQGRVTMTEDTSTDTAYMELSSLRSEDTAVYYCATAQPFHWGDDAFDIWGQGTMVTVSS
VL: not shown
notes: also called clone 65
MFI: 12.6 ratio (intensity by specific antibody / intensity by control IgG)

B2: anti-EphA4 human antibody 336 (antibody, V domains shown)
VH: QVQLQQSGPGLVKPSQTLSLTCAISGDSVSSNSAAWNWIRQSPSRGLEWLGRTYYRSKWYNDYAVSVKSRITINPDTSKNQFSLQLNSVTPEDTAVYYCARDSLRSFDYWGQGTLVTVSS
VL: QSVLTQPPSVSAAPGQKVTISCSGSSSNIGNNYVSWYQQLPGTAPKLLIYDNNKRPSGIPDRFSGSKSGTSATLGITGLQTGDEADYYCGTWDSSLSAVVFGGGTKLTVLG
MFI: 15.5 ratio (intensity by specific antibody / intensity by control IgG)
